Data as given in the RNAGym collection of RNA variant scans (doi:10.1073/pnas.2313332121).

B1: TPR t1 (parent)
chain: GACCAAUCUGCCCUCAGAGCUCGAGAACAUCUUCGGAUGCAGAGGAGGCAGGCUUCGGUGGCGCGAUAGCGCCAACGUCCUCAACCUCCAAUGCAUCCCACCACAUGAUGAUGCCUGAAGAGCCUUGGUUUUUUG

Variants of: B1
Experiment: polymerase ribozyme fitness, log enrichment relative to wild type (log ratio); higher = more active; in vitro selection for triplet polymerase activity
Summary of the method: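 Only genotypes with ≥10 input reads and ≥1 read per output were kept after Illumina sequencing of input and output libraries. These libraries were PCR-built, transcribed mutants of each subunit of a heterodimeric triplet polymerase ribozyme, each put through one triplicate in vitro selection round with frozen incubation at −7 °C, gel excision of extended constructs, streptavidin-bead capture and RT-PCR. Fitness is a logarithmic ratio of genotype enrichment to wild-type enrichment, from inverse-variance-weighted replicate averages, with the logarithm in base 2.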

Point of comparison: GACCAAUCUGCCCUCAGAGCUCGAGAACAUCUUCGGAUGCAUAGGUGGCAGGCUUCGGUGGCGCGAUAGCGCCAACGUCCUCAACCUCCAAUGCAUCCCACCACAUGAUGAUGCCUGAAGAGCCUUGGUUUUUUG [G42U A46U], “polymerase ribozyme fitness (log ratio)” value -1.99. Against it:
- GACCAAUCUGCCCUCAGAGCUCGAGAACAUCUUCGGAUGCAGAGGGGGCAGGCUUGGGUGGCGCGAUAGCGCCAACGUCCUCAACCUCCAAUGCAUCCCACCACAUGAUGAUGCCUGAAGAGCCUUGGUUUUUUG [A46G C56G] — higher, 0.084
- GACCAAUCUGCCCUCAGAGCUCGAGAACAUCUUCGGAUGCAGAGGAGGCAGGCUUCGGUGGCGCGAUAGCGACAACGUCCUCAACCUCCAAUGCAUCCCACCACAUGAUGAUGCCUGAAGAGCCAUGGUUUUUUG [C72A U125A] — higher, -0.026
- GACCAAUCUGCCCUCACAGCUCGAGAACAUCUUCGGAUGCAGAGGAGGCAGGCUUCAGUGGCGCGAUAGCGCCAACGUCCUCAACCUCCAAUGCAUCCCACCACAUGAUGAUGCCUGAAGAGCUUUGGUUUUUUG [G17C G57A C124U] — lower, -5.29
- GACCAAUCUGCACUCCGAGCUCGAGAACAUCUUCGGAUGCAGAGGAGGCAGGCUUCGGUGGCGCGAUAGCGCCAACGUCCUCAACCUCCAAUGCAUCCCACCACAUGAUGAUGCCUGAAGAGCCUUGGUUUUUUG [C12A A16C] — lower, -2.4
- GACCAAUUUGCCCUCAGAGCUCGAGAACAUCUUCGGAUGCAGAGGAGGCAGGCUUCGGUGGCGCGAUAGCGCAAACGUCCUCAUCCUCCAAUGCAUCCCACCACAUGAUGAUGCCUGAAGAGCCUUGAUUUUUUG [C8U C73A A84U G128A] — within 0.2 log units, -1.97
- GACCAAUCUGCCCUCAGAGCUCGAGAACAUCUUCGGAUGAAGAGGAGGCAGGCUUCGGUGGCGCGAUAGCGCCAACCUCCUCAACCUCCAAUGCAUCCCACCACAUGAUGAUGCCUGAAGAGCCUUGGUUUUUUG [C40A G77C] — within 0.2 log units, -1.98
- GACCAAUCUGCCCUCAGAGCUCGAGAACAUCUUCGGAUGCAGAGGAGGCAGGCUUCGGUGGCGCGAUAGCGGCAACGUCCUCAACCUCCAAUGCAUCCCACCACAUGAUGGUGCCUGAAGAACCUUGGUUUUUUG [C72G A111G G122A] — higher, -1.48
- GACCAAUCUGCCCUCAGAGCUCGAGAACAUCUUCGGCUGCAGAGGAGGCAGGCUUCGGUGGCGCGAUAGCGCCAACGUCCUCAACCUCCAAUGCAUCCCACCACAUGAUGAUGCCGGAAGAGCCUUGGUUUUUUG [A37C U116G] — lower, -2.29
- GACCAAUCUGCCCUCAGAGCUCGAGAACAUCUUCGGAUGCAGAGGAGGCAGGCUUCGGUGGCGCGAUAGCGCCAACGUUCCCAACCUCCAAUGCAUCCCACCACAUGAUGAUGCCUGAAGAGCCUUGGUUUUUUG [C79U U81C] — within 0.2 log units, -1.91
- GACCAAUCUGCCCUCAGAGCUCGAGAACAUCUUCGGAUGCAGAGGAGGCAGGCUUCGGUGUCGCGAUAGCGCCAACGCCCUCUACCUCCAAUGCAUCCCACCACAUGAUGAUGCCUGAAGAGCCUUGGUUUUUUG [G61U U78C A83U] — higher, -0.564
- GACCAAUCUGCCCUCAGAGCUCGAGAACAUCUUCGGAAGCAGAGGAGGCAGGCUUCAGUGGCGCGAUAGCGCCAACGUCCUCAACCUCCAAUGCAUCCCACCACAUGAUGAUGCCAGAAAAGCCUUGGUUUUUUG [U38A G57A U116A G120A] — lower, -4.1
- GACCAAUCUGCCUUCAGAGCUCGAGAACAUCUUCGGAUGCAGAGGAGGCAGGCUGCGGUGGCGCGAUAGCGCCAACGUCCUCAACCUCCAAUGCUUCCCACCACAUGAUGCUGCCUGAAGUGCCUUCGUUUUUUG [C13U U55G A95U A111C A121U G127C] — higher, -0.336
- GACCAAUCUGCCCUCAGAGCUCGAGAACAUCUUCGGAUGCAGAGGAGGCAGGCUUCGAUGGCGCGAUAACGCCAACGUCCUCAACCUGCAAUGCAUCCCACCACAUGAUGAUGCCUGAAGUGCCUUGGUUUUUUG [G58A G69A C88G A121U] — lower, -2.86
- GACCAAUCUGUCGUCAGAGCUCGGGAACAUCUUCGGAUGCAGAGGACGAAGGCUUCGGUGGCGCGAUAGCGCCAACGUCCUCAACCUGCAAUGUAUCCCACCACAUGUUGAUGUCUGAAGAGCCUUGGUUUUUUG [C11U C13G A24G G47C C49A C88G C94U A108U C114U] — lower, -6.99
- GACCAAUUUGCCCUCAGAGCUCGAGAAGAUCUUCGGAUGCAGAGGAGGCAGGCUUCGGUGGCGCGAUAGAGCCAACGUCCUCAACCUCCAAUGCAUCCCACCACAUGAUGAUGCCUGAAGAGCCUUGGUUAUUUG [C8U C28G C70A U131A] — lower, -4.27
- GACCAAUCUGUCCUCAGGGCUCGAGAACAUCUUCGGAUGCAGAGUAGGCAGUCUUCGGUGACGCGAUAGCGCCAACGUCCUCAACCUCCAAUGCAUCCCACCACAUGAUGGUGCCUGAAGAGCCUUGGUGUAUUG [C11U A18G G45U G52U G61A A111G U130G U132A] — lower, -6.3
- GACCAAUCUGCCCUCAGAGCUCGAGAACAUCUUCGGUUGCAGAGGAGGCAGGCUUUGGUGGCGCGAUAGCGUCAACGUCCUCAACCUCCAAUGCAUCCCACCACAUGAUGAUGCCUGAAGAGCCUUGGUUUUUUG [A37U C56U C72U] — higher, -0.343
- GAACAAUCUGCCCUCAGAGCUCGAGAACAUCUUCGGAUGCAGAGGAGGCAGGCUUCGGUGGCGCGAUAGCGCCAACGUCCUCAACCUCCAAUGCAUCCCACUACAUGAUGAUGCCUGAAGAGCCUUGGUUUUUUG [C3A C102U] — lower, -2.94
- GACCAAUCUGCCCUCAGAGCUCGAGAACAUCUUCGGAUGCAGAGGAGGCAGGCUUCGGUGGCGCGAUAGCGCCAACGUACUCAACCUCCAAUGCAUCCCACCACAUGAUGGUGCCUGAAGAGCCUUGGUUUUUUG [C79A A111G] — higher, -0.997
- GACCAAUCUGCCCUCAGAGCUCGAGAACAUCUUCGGAUGCACAGGAGGCAGGCUUCGGUGGCGCGAUAGCGCCAACGUCCUCAACCUCCAAUGCAUCCCACCACAUGAUGAUGCCUGAAGAGCCUUGAUUUUUUG [G42C G128A] — lower, -3.12
